From publication PMC8017925, “Structural basis for differential recognition of phosphohistidine-containing peptides by 1-pHis and 3-pHis monoclonal antibodies” (Proceedings of the National Academy of Sciences of the …, 2021) come the findings set out here.

The subject of this assay is ACLYana-3-pHis peptide (AGAG-3-pHis-AGAG). The experiment in a line: BLI binding kinetics of 3-pHis Fabs with affinity-purified pHis peptide. As for the experimental part:
Biolayer interferometry (BLI) studies were performed to determine the relative affinity of pHis Fabs to in situ phosphorylated His peptides versus the phosphomimetic substrates. The N-terminally biotinylated peptides were immobilized on streptavidin biosensors and the rate of association (ka) and dissociation (kd) were determined by varying the pHis Fab concentration. Equilibrium dissociation constants (KD) were determined by fitting the experimental data to a 1:1 Langmuir binding model. ACLYana-1-pTza and ACLYana-3-pTza peptides were used to determine affinity to 1-pHis and 3-pHis Fabs, respectively (Fig. 3 A–E and Table 1). […] The two isomers were separated from each other by passing the reaction through affinity columns containing 1-pHis mAbs using SC1-1 or SC50-3 IgGs or 3-pHis mAbs using SC39-4, SC44-8, and SC56-2 IgGs. The eluates thus contained either predominantly 1-pHis or 3-pHis peptides. These peptides were used to determine the affinity to their respective isomer class of pHis Fabs (Fig. 3 F–J, Table 1, and SI Appendix, Fig. S5). […] This experimental observation is well supported by the higher number of hydrogen bonds that support the SC44-8:3-pTza interaction compared to other pHis Fabs (SI Appendix, Table S5). […] There are at least three reasons for the lower affinity of the mAbs for pHis peptides compared to pTza peptides: The continuous hydrolysis of phosphate from the pHis peptides during the course of the experiment (SI Appendix, Fig. S6), a reduction in the number of hydrogen bond interactions due to one less nitrogen in the imidazole ring compared to triazolyl ring (Fig. 4 and SI Appendix, Fig. S8), and inherently different electronic properties of the imidazole and triazolyl rings in His and Tza, respectively ([20]).
Fig. 3. Binding kinetics of pHis Fabs with cognate pTza and pHis peptides. BLI studies of immobilized peptides (ACLYana-1/3-pTza and phosphorylated ACLYana) with varying concentrations of the pHis Fabs were carried out in triplicate on an Octet Red96e instrument (FortéBio). SC1-1 (A) and SC50-3 (B) pHis Fab interaction with their ACLYana-1-pTza peptides. SC39-4 (C), SC44-8 (D), and SC56-2 (E) pHis Fabs interactions with ACLYana-3-pTza peptides. SC1-1 (F), SC50-3 (G), SC39-4 (H), SC44-8 (I), and SC56-2 (J) pHis Fabs interactions with their affinity-purified ACLYana-pHis peptides are represented, Right. The experimental data are represented in the black dashed lines and the nonlinear least-squares fitting was represented in the red continuous lines. The χ^2 for the goodness of fit is under 1.0 for the all the plots.
The binding kinetics of pHis Fabs with the peptides (pTza and pHis) were evaluated with an Octet RED96e (FortéBio). Streptavidin-coated biosensors (FortéBio) were presoaked in buffer containing 50 mM Hepes pH 8.0, 150 mM NaCl, 0.05% Tween-20, and 0.2% BSA for 15 min. The biotinylated pTza peptides or pHis peptides (20 nM) with and without phosphoramidate treatment were coated onto these streptavidin biosensors and analyzed for their binding to varying concentrations of the pHis Fabs with an association time of 120 s and dissociation time of 200 s. The entire set of experiments was repeated three times. The data were analyzed using the Octet software (FortéBio) and the rates of association and dissociation were obtained by global fitting data to the 1:1 Langmuir interaction model. […]
Peptides used in the DSF and BLI experiments were synthesized by the Salk Peptide Synthesis Core. These peptides were N-terminally biotinylated and C-terminally amidated. They were synthesized using standard Fmoc chemistry on a Gyros Protein Technologies Tribute peptide synthesizer with UV monitoring. Following the deprotection, peptides were analyzed by mass spectrometry and analytical HPLC by the Proteomics Core at Salk. The peptides were HPLC purified to 99% purity by 21st Century Biochemicals, Inc. The Fmoc-pTza’s were synthesized at 10 g scale for incorporation into the peptides. […]
A general note: In BLI a coated tip is dipped into the sample, and binding shifts an interference pattern.

Where [1] appears, read: BLI, affinity-purified ACLYana-3-pHis peptide, 1:1 Langmuir global fit, triplicate.

B1: SC44-8: Fab of rabbit 3-pHis-specific monoclonal antibody with proclivity for GpHAGA motif (antibody, V domains shown)
VH: QSVKESGRGLVQPGGSLTLTCTASGFSIDSYGFSWVRQAPGKGLEHIGYLTAGGRAFYASWAKSRSTITRNTNENTVTLKMTSLTAADTATYFCAKLGSGNPVAIWGPGTLVTVSS
VL: QVLTQTPSFTSAAVGGTVTINCQSSQSVWRNKNLAWYQQKPGQPPKRLIYAIATLDSGVPSRFSGSGSGTQFTLTISDVQCDDAATYYCVGHYGSENDAYYAFGGGTEVVVK
On to B1, for which, under setting [1], the ka worked out at 93600 ± 319 M⁻¹ s⁻¹ and the kd stood at 0.0017 ± 3.32e-06 s⁻¹. In addition, under “BLI, ACLYana phosphorylated with phosphoramidate (8 h, 23 °C), 3-pHis isomer affinity-purified on 3-pHis IgG column, immobilized on streptavidin biosensors, Hepes pH 8.0, 1:1 Langmuir global fit, triplicate”, the dissociation constant Kd (as a rule, the free concentration of one partner at which half of the binding sites on the other are occupied at equilibrium, for simple one-to-one binding) amounted to 18.2 nM. The “BLI signal (maximum) with ACLYana” value (phosphorylated ACLYana, GpHAGAG motif) was found to be 2.0 nm. Moreover, the “affinity for 3-pHis peptides, times (fold) weaker than for the 3-pTza peptide” value (ratio of BLI KD, 3-pHis versus 3-pTza peptide) is 75 times.
